Assay results reported in US20190367620A1 (Merck KGaA, published 2019).

Columns and labels:
Assay in all cases: SPR as in Example 1.8
[1] = biological target: T1, FGFR1 D2 point mutant V56A (human, UniProt P11362 22-254)
T1 chain: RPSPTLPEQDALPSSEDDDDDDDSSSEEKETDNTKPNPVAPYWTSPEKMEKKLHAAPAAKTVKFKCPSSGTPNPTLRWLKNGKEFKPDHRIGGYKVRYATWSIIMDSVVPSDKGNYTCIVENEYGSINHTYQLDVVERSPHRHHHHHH
Protocol: (§1) Binding affinities of anti-FGFR1 antibodies to FGFR1 were measured by Surface Plasmon Resonance (SPR) using a GE Healthcare BIAcore 4000 instrument as follows. Goat anti-human Fc antibody (Jackson ImmunoResearch Laboratories #109-005-098) was first immobilized on BIAcore carboxymethylated dextran CM5 chip using direct coupling to free amino groups following the procedure described by the manufacturer. Antibodies were then captured on the CM5 biosensor chip to achieve approximately 200 response units (RU). Binding measurements were performed using the running HBS-EP+ buffer. A 2-fold dilution series of His-tagged FGFR1 proteins were injected at a flow rate of 30 μl/min at 25° C. Association rates (kₒₙ, per mol/s) and dissociation rates (koff, per s) were calculated using a simple 1:1 Langmuir binding model (Biacore 4000 Evaluation Software). The equilibrium dissociation constant (KD, mol) was calculated as the ratio of koff/kₒₙ.
(§2) To obtain a finer, residue-level mapping of the epitope and to complement the HD exchange data, molecular modelling and manual inspection of the crystal structure of FGFR1 [(Beenken et al. 2012); PDB record 3OJV] was used to select solvent exposed residues within and around the epitope identified by HD exchange. The selected residues were mutated either to alanine (large to small) or to glycine if the selected residue was alanine. In total 35 point mutants were designed, expressed and purified in HEK cells, and tested for binding to mAb #A08 using surface plasmon resonance as described in Example 1.8. The affinity of the antibody for wild-type and each mutant was determined and used to calculate the contribution of each epitope residue to the binding energy.

[2] = biological target: T2, FGFR1 D2 point mutant A99G (human, UniProt P11362 22-254)
T2 chain: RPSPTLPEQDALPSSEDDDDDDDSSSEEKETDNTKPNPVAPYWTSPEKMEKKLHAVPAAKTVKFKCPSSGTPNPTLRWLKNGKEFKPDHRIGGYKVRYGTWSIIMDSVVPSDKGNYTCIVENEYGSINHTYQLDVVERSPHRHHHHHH
Protocol: as §1, §2

[3] = biological target: T3, FGFR1 D2 point mutant A58G (human, UniProt P11362 22-254)
T3 chain: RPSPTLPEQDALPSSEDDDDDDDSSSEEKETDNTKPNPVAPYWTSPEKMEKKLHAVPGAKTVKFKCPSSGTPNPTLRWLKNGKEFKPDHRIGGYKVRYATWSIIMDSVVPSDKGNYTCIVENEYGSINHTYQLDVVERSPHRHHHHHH
Protocol: as §1, §2

[4] = biological target: T4, FGFR1 D2 point mutant E47A (human, UniProt P11362 22-254)
T4 chain: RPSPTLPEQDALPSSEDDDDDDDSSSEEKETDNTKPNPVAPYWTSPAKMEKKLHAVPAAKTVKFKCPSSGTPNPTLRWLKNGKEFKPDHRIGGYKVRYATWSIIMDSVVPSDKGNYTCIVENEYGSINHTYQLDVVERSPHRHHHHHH
Protocol: as §1, §2

[5] = biological target: T5, FGFR1 D2 point mutant R97A (human, UniProt P11362 22-254)
T5 chain: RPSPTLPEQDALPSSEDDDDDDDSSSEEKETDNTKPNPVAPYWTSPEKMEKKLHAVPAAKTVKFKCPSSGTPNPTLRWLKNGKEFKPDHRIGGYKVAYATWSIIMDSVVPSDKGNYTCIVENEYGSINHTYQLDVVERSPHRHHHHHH
Protocol: as §1, §2

[6] = biological target: T6, FGFR1 D2 point mutant P87A (human, UniProt P11362 22-254)
T6 chain: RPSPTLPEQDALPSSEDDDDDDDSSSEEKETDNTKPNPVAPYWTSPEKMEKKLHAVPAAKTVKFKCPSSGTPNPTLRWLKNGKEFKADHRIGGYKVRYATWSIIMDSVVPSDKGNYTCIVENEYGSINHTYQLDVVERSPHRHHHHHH
Protocol: as §1, §2

[7] = biological target: T7, FGFR1 D2 point mutant H89A (human, UniProt P11362 22-254)
T7 chain: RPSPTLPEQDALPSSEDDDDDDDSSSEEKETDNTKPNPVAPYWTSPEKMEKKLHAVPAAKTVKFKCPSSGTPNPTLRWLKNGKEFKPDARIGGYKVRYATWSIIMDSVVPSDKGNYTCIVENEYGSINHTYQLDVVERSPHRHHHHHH
Protocol: as §1, §2

[8] = biological target: T8, FGFR1 D2 point mutant D106A (human, UniProt P11362 22-254)
T8 chain: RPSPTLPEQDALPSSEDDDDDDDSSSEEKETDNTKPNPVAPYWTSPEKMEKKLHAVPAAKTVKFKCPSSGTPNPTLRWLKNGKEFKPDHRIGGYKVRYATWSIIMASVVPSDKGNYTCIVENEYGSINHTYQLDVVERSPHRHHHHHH
Protocol: as §1, §2

[9] = biological target: T9, FGFR1 D2 point mutant S107A (human, UniProt P11362 22-254)
T9 chain: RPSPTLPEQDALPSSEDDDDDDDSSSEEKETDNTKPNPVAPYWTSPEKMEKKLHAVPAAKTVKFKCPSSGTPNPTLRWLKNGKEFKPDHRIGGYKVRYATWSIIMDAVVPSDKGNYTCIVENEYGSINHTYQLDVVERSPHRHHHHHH
Protocol: as §1, §2

[10] = biological target: T10, FGFR1 D2 point mutant E50A (human, UniProt P11362 22-254)
T10 chain: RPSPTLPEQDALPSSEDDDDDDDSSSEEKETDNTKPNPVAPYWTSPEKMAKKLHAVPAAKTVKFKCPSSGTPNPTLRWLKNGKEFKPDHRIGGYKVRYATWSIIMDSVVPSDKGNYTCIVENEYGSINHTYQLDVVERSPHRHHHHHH
Protocol: as §1, §2

[11] = biological target: T11, FGFR1 D2 point mutant K86A (human, UniProt P11362 22-254)
T11 chain: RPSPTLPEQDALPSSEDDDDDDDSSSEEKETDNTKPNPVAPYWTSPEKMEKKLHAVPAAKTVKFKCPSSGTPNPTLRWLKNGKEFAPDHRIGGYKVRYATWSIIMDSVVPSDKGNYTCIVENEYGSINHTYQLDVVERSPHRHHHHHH
Protocol: as §1, §2

B1: mAb #A08 (antibody, V domains shown)
VH: EVQLQESGPGLVKPSGTLSLTCAVSGGSISSNNWWSWVRQPPGKGLEWIGEIYHSGSTSYNPSLKSRVTISVDKSKNQFSLKLNSVTAADTAVYYCARGTDWFDPWGQGTLVTVSS
VL: QAVLTQPPSVSVAPGQTARITCGGNNIGSESVHWYQQKPGQAPVLVVYDDSDRPSGIPERFSGSNSGNTATLTISRVEAGDEADYYCQVWDSTSDHRVFGGGTKLTVL
notes: Only variable domains are tied to the name mAb #A08 (hit); also called #A08 hit; mAb #08
B1 gave a Kd [1] of 270 pM, a Kd [2] of 180 pM and a Kd [3] of 2200 pM. The Kd [4] was 260 pM, the Kd [5] was 4250 pM and the Kd [6] was 220 pM. It also gave a Kd [7] of 190 pM, a Kd [8] of 4930 pM and a Kd [9] of 240 pM. For the same binder, the Kd [10] was 200 pM and the Kd [11] was 180 pM.
